Results as given in the RNAGym collection of RNA variant scans (doi:10.7554/elife.80360).

B1: CPEB3 Ribozyme (parent)
chain: GGGGGCCACAGCAGAAGCGUUCACGUCGCGGCCCCUGUCAGAUUCUGGUGAAUCUGCGAAUUCUGCUGU

Variants of: B1
Test: self-cleavage, relative activity (ratio to wild type); higher = more cleavage; co-transcriptional

Row | Variant | self-cleavage
1 | GGGGGCCACAGCAGACGCGUUCACGUCGCGGCCCCUGUCAGAUUCUGGUGCAUCUGCGAAUUCUGCUGU [A16C A51C] | 0.217
2 | GGGGGCCACAGCAGACGCGUUCACGUCGCGGCCCCUGUCAGAUUCUGGUGGAUCUGCGAAUUCUGCUGU [A16C A51G] | 0.33
3 | GGGGGCCACAGCAGACGCGUUCACGUCGCGGCCCCUGUCAGAUUCUGGUGUAUCUGCGAAUUCUGCUGU [A16C A51U] | 0.239
4 | GGGGGCCACAGCAGACGCGUUCACGUCGCGGCCCCUGUCAGAUUCUGGUGACUCUGCGAAUUCUGCUGU [A16C A52C] | 0.239
5 | GGGGGCCACAGCAGACGCGUUCACGUCGCGGCCCCUGUCAGAUUCUGGUGAUUCUGCGAAUUCUGCUGU [A16C A52U] | 0.249
6 | GGGGGCCACAGCAGACGCGUUCACGUCGCGGCCCCUGUAAGAUUCUGGUGAAUCUGCGAAUUCUGCUGU [A16C C39A] | 0.108
7 | GGGGGCCACAGCAGACGCGUUCACGUCCCGGCCCCUGUCAGAUUCUGGUGAAUCUGCGAAUUCUGCUGU [A16C G28C] | 0.133
8 | GGGGGCCACAGCAGACGCGUUCACGUCACGGCCCCUGUCAGAUUCUGGUGAAUCUGCGAAUUCUGCUGU [A16C G28A] | 0.103
9 | GGGGGCCACAGCAGACGGGUUCACGUCGCGGCCCCUGUCAGAUUCUGGUGAAUCUGCGAAUUCUGCUGU [A16C C18G] | 0.114
10 | GGGGGCCACAGCAGACGAGUUCACGUCGCGGCCCCUGUCAGAUUCUGGUGAAUCUGCGAAUUCUGCUGU [A16C C18A] | 0.129
11 | GGGGGCCACAGCAGACGCGUUCACGUCGCGGCCCCUGUCAGAUUCUGGUGAAUCUGCGAAUUCUGCUGU [A16C] | 0.373
12 | GGGGGCCACAGCAGUAGCGUUCACGUCGCGGCCCCUGUCAGAUUCUGGUGAAUCUGCGAAUUCCGCUGU [A15U U64C] | 0.654
13 | GGGGGCCACAGCAGUAGCGUUCACGUCGCGGCCCCUGUCAGAUUCUGGUGAAUCUGCGAAUUCAGCUGU [A15U U64A] | 0.683
14 | GGGGGCCACAGCAGUAGCGUUCACGUCGCGGCCCCUGUCAGAUUCUGGUGAAUCUGCGAAUUCGGCUGU [A15U U64G] | 0.549
15 | GGGGGCCACAGCAGACGCGUUCACGUCGCGGCCCCUGUCAUAUUCUGGUGAAUCUGCGAAUUCUGCUGU [A16C G41U] | 0.142
16 | GGGGGCCACAGCAGACGCGUUCACGUCGCGGCCCCUGUCAAAUUCUGGUGAAUCUGCGAAUUCUGCUGU [A16C G41A] | 0.129
17 | GGGGGCCACAGCAGACGCGUUAACGUCGCGGCCCCUGUCAGAUUCUGGUGAAUCUGCGAAUUCUGCUGU [A16C C22A] | 0.105
18 | GGGGGCCACAGCAGACGCGUUGACGUCGCGGCCCCUGUCAGAUUCUGGUGAAUCUGCGAAUUCUGCUGU [A16C C22G] | 0.0967
19 | GGGGGCCACAGCAGACGCGUUCUCGUCGCGGCCCCUGUCAGAUUCUGGUGAAUCUGCGAAUUCUGCUGU [A16C A23U] | 0.549
20 | GGGGGCCACAGCAGACGCGUUCCCGUCGCGGCCCCUGUCAGAUUCUGGUGAAUCUGCGAAUUCUGCUGU [A16C A23C] | 0.277

Row | Variant | self-cleavage
21 | GGGGGCCACAGCAGACGCGUUCGCGUCGCGGCCCCUGUCAGAUUCUGGUGAAUCUGCGAAUUCUGCUGU [A16C A23G] | 0.0786
22 | GGGGGCCACAGCAGACGCGUUCACGUCGCGGCCCGUGUCAGAUUCUGGUGAAUCUGCGAAUUCUGCUGU [A16C C35G] | 0.118
23 | GGGGGCCACAGCAGACGCGUUCACGUCGCGGCCCAUGUCAGAUUCUGGUGAAUCUGCGAAUUCUGCUGU [A16C C35A] | 0.071
24 | GGGGGCCACAGCAGACGCGUUCACGUCGCGGCCCUUGUCAGAUUCUGGUGAAUCUGCGAAUUCUGCUGU [A16C C35U] | 0.17
25 | GGGGGCCACAGCAGACGCGUUCAGGUCGCGGCCCCUGUCAGAUUCUGGUGAAUCUGCGAAUUCUGCUGU [A16C C24G] | 0.171
26 | GGGGGCCACAGCAGACGCGUUCACGUCGCGGCCCCUGUCAGAUUCUGAUGAAUCUGCGAAUUCUGCUGU [A16C G48A] | 0.328
27 | GGGGGCCACAGCAGACGCGUUCACGUAGCGGCCCCUGUCAGAUUCUGGUGAAUCUGCGAAUUCUGCUGU [A16C C27A] | 0.114
28 | GGGGGCCACAGCAGACGCGUUCACGUGGCGGCCCCUGUCAGAUUCUGGUGAAUCUGCGAAUUCUGCUGU [A16C C27G] | 0.122
29 | GGGGGCCACAGCAGACGCGUUCACGUUGCGGCCCCUGUCAGAUUCUGGUGAAUCUGCGAAUUCUGCUGU [A16C C27U] | 0.15
30 | GGGGGCCACAGCAGACGCGUUCACGUCGCCGCCCCUGUCAGAUUCUGGUGAAUCUGCGAAUUCUGCUGU [A16C G30C] | 0.191
31 | GGGGGCCACAGCAGUAGCGUUCACGUCGCGGCCCCUGUCAGAUUCUGGUGAAUCUGCGAAUUCUGCUGG [A15U U69G] | 0.998
32 | GGGGGCCACAGCAGACCCGUUCACGUCGCGGCCCCUGUCAGAUUCUGGUGAAUCUGCGAAUUCUGCUGU [A16C G17C] | 0.0992
33 | GGGGGCCACAGCAGACUCGUUCACGUCGCGGCCCCUGUCAGAUUCUGGUGAAUCUGCGAAUUCUGCUGU [A16C G17U] | 0.127
34 | GGGGGCCACAGCAGACACGUUCACGUCGCGGCCCCUGUCAGAUUCUGGUGAAUCUGCGAAUUCUGCUGU [A16C G17A] | 0.144
35 | GGGGGCCACAGCAGACGCGUUCACGUCGCGGCCCCUGUCAGAUUCUGGUGAAUCUGCGGAUUCUGCUGU [A16C A59G] | 0.287
36 | GGGGGCCACAGCAGUAGCGUUCACGUCGCGGCCCCUGUCAGAUUCUGGUGAAUCUGCGAAGUCUGCUGU [A15U U61G] | 0.854
37 | GGGGGCCACAGCAGUAGCGUUCACGUCGCGGCCCCUGUCAGAUUCUGGUGAAUCUGCGAACUCUGCUGU [A15U U61C] | 0.686
38 | GGGGGCCACAGCAGACGCGUUCACGUCGCGGGCCCUGUCAGAUUCUGGUGAAUCUGCGAAUUCUGCUGU [A16C C32G] | 0.136
39 | GGGGGCCACAGCAGACGCGUUCACGUCGCGGUCCCUGUCAGAUUCUGGUGAAUCUGCGAAUUCUGCUGU [A16C C32U] | 0.299
